Results from publication PMC8930183, “Structure of the Pf12 and Pf41 heterodimeric complex of Plasmodium falciparum 6-cysteine proteins” (FEMS Microbes, 2022).

B1: Pf41 D1D2 (residues 21-368), untagged [Plasmodium falciparum] / octa-histidine tagged Pf12 D1D2 (residues 28-304) [Plasmodium falciparum] (parent complex)
chain 1: KSHKCDFTKEKYLLSGEKEVSCEIDANPSDDITFICPNKIDSLCFHTVNISKNINQNKSTMSIQDLLYGSVVYGNTLFISPYVRTNTPFYCFCNLDTVTIQKFLKINRFLKDDDELSEADVMKHLKGGNVSEAQADEYLNKALNRFKKMKDLSKFFNDQADNTTKLNLPKSLNIPNDILNYDVYNSSNNRNDIVVKDEVTNKQIISKRGIMSVFVRSNNNVIKGCDFGNNNKNYFSHPISVAGKVNNKVCKIQGKPGELVGFKCAFEENGKVEPPNCFDQVLHKNKVTDLKTLIPGYASYTNKHSSKYPYYLKIPHFVNEQYTIQCKCKSNNSQNEYTFELDIQPGES
chain 2: NLTCDFNDVYKLEFHPNQQTSVTKLCNLTPNVLEKVTIKCGSDKLNYNLYPPTCFEEVYASRNMMHLKKIKEFVIGSSMFMRRSLTPNKINEVSFRIPPNMMPEKPIYCFCENKKTITINGSNGNPSSKKDIINRGIVEIIIPSLNEKVKGCDFTTSESTIFSKGYSINEISNKSSNNQQDIVCTVKAHANDLIGFKCPSNYSVEPHDCFVSAFNLSGKNENLENKLKLTNIIMDHYNNTFYSRLPSLISDNWKFFCVCSKDNEKKLVFTVEASISS
B2: Pf12 D1D2 (residues 28-304), untagged [Plasmodium falciparum] / octa-histidine tagged Pf41 D1D2 (residues 21-368) [Plasmodium falciparum] (parent complex)
chain 1: B1 chain 2
chain 2: B1 chain 1

Variants of: B1
Experiment: BLI; mutant at 1000 nM, 500 nM, and 250 nM; binding to immobilised WT Pf12; parent: 100; read off a plot

Question: How did the percent of parent turn out when chain 1 KSHKCDFTKEKYLLSGEKEVSCEIDANPSDDITFICPNKIDSLCFHTVNISKNINQNKSTMSIQDLLYGSVVYGNTLFISPYVRTNTPFYCFCNLDTVTIQKFLKINRFLKDDDELSEADVMKHLKGGNVSEAQADEYLNKALNRLKKMKDLSKFFNDQADNTTKLNLPKSLNIPNDILNYDVYNSSNNRNDIVVKDEVTNKQIISKRGIMSVFVRSNNNVIKGCDFGNNNKNYFSHPISVAGKVNNKVCKIQGKPGELVGFKCAFEENGKVEPPNCFDQVLHKNKVTDLKTLIPGYASYTNKHSSKYPYYLKIPHFVNEQYTIQCKCKSNNSQNEYTFELDIQPGES [chain 1 F146L] was run?
Answer: ~122 % WT

Variants of: B2
Experiment: BLI; mutant at 1000 nM, 500 nM, and 250 nM; binding to immobilised WT Pf41; parent: 100; read off a plot

Question: For chain 1 NLTCDFNDVYKLEFHPNQQTSVTKLCNLTPNVLEKVTIKCGSDKLNYNLYPPTCFEEVYASRNMMHLKKIKEFVIGSSMFMRRSLTPNKINEVSFRIPPNMMPEKPIYCFCENKKTITINGSNGNPSSKKDIINRGIVEIIIPSLNEKVKGCDFTTSESTIFSKGYSINEISNKSSNNQQDIVCTVKAHANDLIGFKCPSNYSVEPADCFVSAFNLSGKNENLENKLKLTNIIMDHYNNTFYSRLPSLISDNWKFFCVCSKDNEKKLVFTVEASISS [chain 1 H207A], which percent of parent is on record?
Answer: ~116 % WT

Question: Which percent of parent does the source give for chain 1 NLTCDFNDVYKLEFHPNQQTSVTKLCNLTPNVLEKVTIKCGSDKLNYNLYPPTCFEEVYASRNMMHLKKIKEFVIGSSMFMRRSLTPNKINEVSFRIPPNMMPEKPIYCFCENKKTITINGSNGNPSSKKDIINRGIVEIIIPSLNEKVKGCDFTTSESTIFSKGYSINEISNKSSNNQQDIVCTVKAHANDLIGFKCPSNYSVEPHDCFVSAFNLSGKNENLENKLKLTNIIMDHANNTFYSRLPSLISDNWKFFCVCSKDNEKKLVFTVEASISS [chain 1 Y237A] here?
Answer: ~2 % WT

Question: chain 1 NLTCDFNDVYKLEFHPNQQTSVTKLCNLTPNVLEKVTIKCGSDKLNYNLYPPTCFEEVYASRNMMHLKKIKEFVIGSSMFMRRSLTPNKINEVSFRIPPNMMPEKPIYCFCENKKTITINGSNGNPSSKKDIINRGIVEIIIPSLNEKVKGCDFTTSESTIFSKGYSINEISNKSSNNQQDIVCTVKAHANDLIGFKCPSNYSVEPHDCFVSAFNLSGKNENLENKLKLTNIIMDHYNNTFYSRLPSLISDNWKFACVCSKDNEKKLVFTVEASISS [chain 1 F256A] was tested. Which percent of parent did it give?
Answer: ~4 % WT

Question: chain 1 NLTCDFNDVYKLEFHPNQQTSVTKLCNLTPNVLEKVTIKCGSDKLNYNLYPPTCFEEVYASRNMMHLKKIKEFVIGSSMFARRSLTPNKINEVSFRIPPNMMPEKPIYCFCENKKTITINGSNGNPSSKKDIINRGIVEIIIPSLNEKVKGCDFTTSESTIFSKGYSINEISNKSSNNQQDIVCTVKAHANDLIGFKCPSNYSVEPHDCFVSAFNLSGKNENLENKLKLTNIIMDHYNNTFYSRLPSLISDNWKFFCVCSKDNEKKLVFTVEASISS [chain 1 M81A] was tested. Which percent of parent did it give?
Answer: ~22 % WT

Question: Which percent of parent does the source give for chain 1 NLTCDFNDVYKLEFHPNQQTSVTKLCNLTPNVLEKVTIKCGSDKLNYNLYPPTCFEEVYASRNMMHLKKIKEFVIGSSMFMARSLTPNKINEVSFRIPPNMMPEKPIYCFCENKKTITINGSNGNPSSKKDIINRGIVEIIIPSLNEKVKGCDFTTSESTIFSKGYSINEISNKSSNNQQDIVCTVKAHANDLIGFKCPSNYSVEPHDCFVSAFNLSGKNENLENKLKLTNIIMDHYNNTFYSRLPSLISDNWKFFCVCSKDNEKKLVFTVEASISS [chain 1 R82A] here?
Answer: ~9 % WT

Question: Which percent of parent does the source give for chain 1 NLTCDFNDVYKLEFHPNQQTSVTKLCNLTPNVLEKVTIKCGSDKLNYNLYPPTCFEEVYASRNMMHLKKIKEFVIGSSMFMERSLTPNKINEVSFRIPPNMMPEKPIYCFCENKKTITINGSNGNPSSKKDIINRGIVEIIIPSLNEKVKGCDFTTSESTIFSKGYSINEISNKSSNNQQDIVCTVKAHANDLIGFKCPSNYSVEPHDCFVSAFNLSGKNENLENKLKLTNIIMDHYNNTFYSRLPSLISDNWKFFCVCSKDNEKKLVFTVEASISS [chain 1 R82E] here?
Answer: ~0 % WT

Question: With chain 1 NLTCDFNDVYKLEFHPNQQTSVTKLCNLTPNVLEKVTIKCGSDKLNYNLYPPTCFEEVYASRNMMHLKKIKEFVIGSSMFMRASLTPNKINEVSFRIPPNMMPEKPIYCFCENKKTITINGSNGNPSSKKDIINRGIVEIIIPSLNEKVKGCDFTTSESTIFSKGYSINEISNKSSNNQQDIVCTVKAHANDLIGFKCPSNYSVEPHDCFVSAFNLSGKNENLENKLKLTNIIMDHYNNTFYSRLPSLISDNWKFFCVCSKDNEKKLVFTVEASISS [chain 1 R83A] as the variant, how does the percent of parent read?
Answer: ~38 % WT

Question: chain 1 NLTCDFNDVYKLEFHPNQQTSVTKLCNLTPNVLEKVTIKCGSDKLNYNLYPPTCFEEVYASRNMMHLKKIKEFVIGSSAFMRRSLTPNKINEVSFRIPPNMMPEKPIYCFCENKKTITINGSNGNPSSKKDIINRGIVEIIIPSLNEKVKGCDFTTSESTIFSKGYSINEISNKSSNNQQDIVCTVKAHANDLIGFKCPSNYSVEPHDCFVSAFNLSGKNENLENKLKLTNIIMDHYNNTFYSRLPSLISDNWKFFCVCSKDNEKKLVFTVEASISS [chain 1 M79A] was tested. Which percent of parent did it give?
Answer: ~27 % WT

Question: How did the percent of parent turn out when chain 1 NLTCDFNDVYKLEFHPNQQTSVTKLCNLTPNVLEKVTIKCGSDKLNYNLYPPTCFEEVYASRNMMHLKKIKEFVIGSSMFMRRSLTPNKINEVSFRIPPNMMPEKPIYCFCENKKTITINGSNGNPSSKKDIINRGIVEIIIPSLNEKVKGCDFTTSESTIFSKGYSINEISNKSSNNQQDIVCTVKAHANDLIGFKCPSNYSVEPHDCFVSALNLSGKNENLENKLKLTNIIMDHYNNTFYSRLPSLISDNWKFFCVCSKDNEKKLVFTVEASISS [chain 1 F214L] was run?
Answer: ~67 % WT

Question: For chain 1 NLTCDFNDVYKLEFHPNQQTSVTKLCNLTPNVLEKVTIKCGSDKLNYNLYPPTCFEEVYASRNMMHLKKIKEFVIGSSMFMRRSLTPNKINEVSFRIPPNMMPEKPIYCFCENKKTITINGSNGNPSSKKDIINRGIVEIIIPSLNEKVKGCDFTTSESTIFSKGYSINEISNKSSNNQQDIVCTVKAHANDLIGFKCPSNYSVEPHDCFVSAANLSGKNENLENKLKLTNIIMDHYNNTFYSRLPSLISDNWKFFCVCSKDNEKKLVFTVEASISS [chain 1 F214A], which percent of parent is on record?
Answer: ~12 % WT

Question: chain 1 NLTCDFNDVYKLEFHPNQQTSVTKLCNLTPNVLEKVTIKCGSDKLNYNLYPPTCFEEVYASRNMMHLKKIKEFVIGSSMFMRRSLTPNKINEVSFAIPPNMMPEKPIYCFCENKKTITINGSNGNPSSKKDIINRGIVEIIIPSLNEKVKGCDFTTSESTIFSKGYSINEISNKSSNNQQDIVCTVKAHANDLIGFKCPSNYSVEPHDCFVSAFNLSGKNENLENKLKLTNIIMDHYNNTFYSRLPSLISDNWKFFCVCSKDNEKKLVFTVEASISS [chain 1 R96A] was tested. Which percent of parent did it give?
Answer: ~55 % WT

Question: chain 1 NLTCDFNDVYKLEFHPNQQTSVTKLCNLTPNVLEKVTIKCGSDKLNYNLYPPTCFEEVYASRNMMHLKKIKEFVIGSSMFMRRSLTPNKINEVSFEIPPNMMPEKPIYCFCENKKTITINGSNGNPSSKKDIINRGIVEIIIPSLNEKVKGCDFTTSESTIFSKGYSINEISNKSSNNQQDIVCTVKAHANDLIGFKCPSNYSVEPHDCFVSAFNLSGKNENLENKLKLTNIIMDHYNNTFYSRLPSLISDNWKFFCVCSKDNEKKLVFTVEASISS [chain 1 R96E] was tested. Which percent of parent did it give?
Answer: ~3 % WT
